In data set [1] the target is T1, HUαβ (Escherichia coli, UniProt P0ACF0;P0ACF4 1-90;1-90). Put plainly: ITC. A general note: Isothermal titration calorimetry measures the heat released or taken up as one component is titrated into another.
For data set [2], the target named is T1, HUαβ. Put plainly: ITC. This is another data set of the same source.

T1 sequence (P0ACF0 whole entry, chain 1 of 2): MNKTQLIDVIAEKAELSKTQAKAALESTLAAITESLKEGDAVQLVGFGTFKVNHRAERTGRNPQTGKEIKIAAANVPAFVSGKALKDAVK
T1 sequence (P0ACF4 whole entry, chain 2 of 2): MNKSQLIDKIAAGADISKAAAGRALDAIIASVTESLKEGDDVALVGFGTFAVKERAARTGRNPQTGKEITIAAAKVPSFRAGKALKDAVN

B1: 15 bp DNA (dsDNA)
DNA 1: CGGTCAGTTCAAGGC
DNA 2: GCCTTGAACTGACCG
On to B1, for which, in data set [1], the binding signal turned out to be 2.8 ± 1 k10/k6 ratio.

B2: 38 bp DNA (dsDNA)
DNA 1: CGGTCAGTTCAAGCCCTTCTAAGTTTGTAGACACCAGC
DNA 2: GCTGGTGTCTACAAACTTAGAAGGGCTTGAACTGACCG
Take B2: in data set [2], the binding result is “binds”.

The record behind these values is paper PMC3115508.
